In assay [1] the target is T1, full length recombinant human 2N4R tau (human, UniProt P10636 1-758).
T1 construct: bought from rPeptide; pHrodo Red maleimide-labelled where it stands in uptake assays; also called tau1-441; full length tau
In words: ELISA, tau coated on the plate. The protocol: ELISA plates were coated with antigen (non-conjugated antigen peptide (Antigen peptide ([C]-[…]-amide (SEQ ID NO: 13)) or full length 2N4R tau (SEQ ID NO: 2), 100 ng/well; or 1% BSA in 1×TBS) in 1× carbonate-bicarbonate buffer for 1 hour at 37° C. Antigen was removed from wells and the plates were then blocked for 1 hour at RT with 5% dried milk in 1×TBS. Blocking solution was removed, HEK293F cell supernatant (10 μg/mL, to 0.0001 μg/mL in 1% BSA/1×TBS) was added to relevant wells, and plates were incubated for 1 hour at RT with gentle shaking. Plates were then washed four times with TBS/0.1% Tween (TBST). Anti-rabbit IgG-HRP antibody (Sigma, St Louis, MO, USA), diluted 1:5000 in 5% milk/TBS, was added to each well and plates were incubated for 1 hour at RT with gentle shaking before being washed four times with TBST. 3,3′,5,5′-tetramethylbenzidine (TMB) ELISA solution was added to each well and plates were incubated for 15 mins at RT. An equal volume of 1 M sulfuric acid was added to each well and OD was measured at 450 nm.

Assay [2] concerns the target T1, full length recombinant human 2N4R tau. In words: SPR MCK, IgG on Protein A, tau in flow. On the procedure: Anti-tau IgGs bind to full length 2N4R tau (SEQ ID NO: 2) with high affinity. […] It is predicted that the binding affinity of these antibodies would be equivalent to any tau species containing the epitope corresponding to amino acids 369-381 of 2N4R tau (SEQ ID NO: 1), if this sequence is accessible.
19.2 Assessment of antibody binding to tau: Binding of anti-tau hIgG1 to full length recombinant 2N4R tau (Rpeptide; SEQ ID NO: 2) was assessed using the Biacore T200 (GE Healthcare, Chicago, IL, USA) running Biacore T200 Evaluation Software V2.0.1. hIgG1 were immobilised on a Protein A capture sensor chip in running buffer (HBS-EP+ buffer containing 1 mg/mL BSA) at 25° C., captured to ˜50 RU at 10 μL/min. For multi-cycle kinetics experiments (clone #66), recombinant 2N4R tau was flowed at concentrations ranging from 0.39 nM to 50 nM in running buffer at 40 μL/min, with an association time of 150 s and a dissociation time of 250 s. Optimised conditions for multiple-cycle kinetics experiments were applied to clone #44: recombinant 2N4R tau was flowed at concentrations ranging from 0.39 nM to 12.5 nM (2-fold dilutions) with an association time of 60 s and a dissociation time of 200 s (cropped to 65 s to improve analysis fit). Curves were compared to a reference cell that was mock immobilized (no antibody present).

For assay [3] the target is unchanged. Nature of the assay: SPR MCK, IgG on Protein A, tau in flow. This is another data set of the same source.
The target is the same in assay [4]. In words: SPR SCK, IgG on Protein A, tau in flow. The method in brief: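 Antibodies were captured to ~50 RU on a Protein A chip in HBS-EP+ with 1 mg/mL BSA at 25 °C. Tau was injected by single-cycle kinetics at 1.25–10 nM (2-fold), with 60 s association and 200 s dissociation. Signals were referenced to a mock-immobilized cell.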
The target in assay [5] is monomeric P301S 2N4R tau, pHrodo-labelled (human, UniProt P10636 1-758, pHrodo Red maleimide label). In words: cell-based or functional assay.
In assay [6] the target is aggregated (oligomeric) P301S 2N4R tau, pHrodo-labelled (human, UniProt P10636 1-758, pHrodo Red maleimide label). In words: cell-based or functional assay.
Assay [7] deals with T1, full length recombinant human 2N4R tau. Nature of the assay: SPR SCK, IgG on Protein A, tau in flow. The source holds these as a separate data set.
Assay [8] concerns the target T2, Bovine serum albumin (bovine, UniProt P02769 25-607).
T2 construct: also called BSA
In words: ELISA on 1% BSA, HEK supernatant, anti-human IgG-HRP, n=1.

The target of assay [9] is T1, full length recombinant human 2N4R tau. Nature of the assay: SPR MCK, IgG on Protein A, tau in flow at 100 µL/min.
In assay [10] the target is T2, Bovine serum albumin. In words: ELISA on 1% BSA, HEK supernatant, anti-human IgG-HRP, n=1. In short, it runs like this: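 Wells coated with antigen, blocked 1 h RT in 5% milk/TBS; HEK293 transient-transfection supernatants applied at 1:100 in 1% BSA/TBS for 1 h RT. Bound hIgG1 detected with anti-human IgG-HRP (1:2000), TMB 15 min, acid stop, OD450; single replicate.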
The source holds these as a separate data set. For orientation: An ELISA detects its analyte on a solid surface through an enzyme-linked reagent.

For assay [11], the target named is T1, full length recombinant human 2N4R tau. Nature of the assay: ELISA on 2N4R tau (100 ng/well), HEK supernatant, anti-human IgG-HRP, n=1. The protocol: FIG. 7. A panel of humanised anti-tau IgG bind to full length recombinant 2N4R tau in an ELISA format. Supernatants from HEK cells transiently transfected with each IgG clone were tested at 1:100 for binding to full length recombinant 2N4R tau (solid bars). […] Binding of anti-tau hIgG1 was detected using an HRP-conjugated anti-human secondary antibody and data are shown from a representative experiment (n=1 replicate).
Antigen was removed from wells and the plates were then blocked for 1 hour at RT with 5% dried milk in 1×TBS. Blocking solution was removed, HEK293 cell supernatant (1:100 in 1% BSA/1×TBS) was added to relevant wells, and plates were incubated for 1 hour at RT with gentle shaking. Plates were then washed four times with TBS/0.1% Tween (TBST). Goat anti-human IgG-HRP antibody (Thermo Fisher Scientific, Waltham, MA, USA), diluted 1:2000 in 5% milk/TBS, was added to each well and plates were incubated for 1 hour at RT with gentle shaking before being washed four times with TBST. 3,3′,5,5′-tetramethylbenzidine (TMB) ELISA solution was added to each well and plates were incubated for 15 mins at RT. An equal volume of 1 M sulfuric acid was added to each well and OD was measured at 450 nm.

The target is the same in assay [12]. In words: SPR MCK, IgG on Protein A, tau in flow at 100 µL/min; on the border of mass transport limitation.

From patent US20250270301A1 (GEN2 NEUROSCIENCE, published 2025) come the findings set out here.

The term EC50 denotes the concentration at which the effect is half-maximal. The term Kd denotes the concentration at which binding is half-saturated. By koff is commonly meant the first-order rate constant of dissociation. As a reminder, the kon is a measure of how fast the partners come together.

Residue numbers refer to the chain shown, from its start. Like-named read-outs stand apart in the source and are kept apart here.

T2 sequence (P02769 25-607 limits assumed): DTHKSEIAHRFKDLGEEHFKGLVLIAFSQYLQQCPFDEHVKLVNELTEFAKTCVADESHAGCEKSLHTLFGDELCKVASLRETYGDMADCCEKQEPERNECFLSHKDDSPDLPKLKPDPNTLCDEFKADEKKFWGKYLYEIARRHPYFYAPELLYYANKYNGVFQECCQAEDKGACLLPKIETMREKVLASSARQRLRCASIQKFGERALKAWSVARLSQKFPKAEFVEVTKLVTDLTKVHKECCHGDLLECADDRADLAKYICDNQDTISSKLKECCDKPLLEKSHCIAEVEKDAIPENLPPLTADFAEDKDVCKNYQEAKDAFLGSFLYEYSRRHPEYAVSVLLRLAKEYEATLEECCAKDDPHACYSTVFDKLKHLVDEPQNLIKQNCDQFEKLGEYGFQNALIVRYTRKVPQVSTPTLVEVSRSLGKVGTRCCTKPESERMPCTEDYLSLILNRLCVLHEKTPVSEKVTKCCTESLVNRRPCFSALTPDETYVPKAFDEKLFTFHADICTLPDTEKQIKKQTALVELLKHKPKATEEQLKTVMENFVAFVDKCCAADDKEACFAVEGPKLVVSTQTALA
T1 sequence (P10636 other isoform, or with tags, fused parts or gaps limits assumed): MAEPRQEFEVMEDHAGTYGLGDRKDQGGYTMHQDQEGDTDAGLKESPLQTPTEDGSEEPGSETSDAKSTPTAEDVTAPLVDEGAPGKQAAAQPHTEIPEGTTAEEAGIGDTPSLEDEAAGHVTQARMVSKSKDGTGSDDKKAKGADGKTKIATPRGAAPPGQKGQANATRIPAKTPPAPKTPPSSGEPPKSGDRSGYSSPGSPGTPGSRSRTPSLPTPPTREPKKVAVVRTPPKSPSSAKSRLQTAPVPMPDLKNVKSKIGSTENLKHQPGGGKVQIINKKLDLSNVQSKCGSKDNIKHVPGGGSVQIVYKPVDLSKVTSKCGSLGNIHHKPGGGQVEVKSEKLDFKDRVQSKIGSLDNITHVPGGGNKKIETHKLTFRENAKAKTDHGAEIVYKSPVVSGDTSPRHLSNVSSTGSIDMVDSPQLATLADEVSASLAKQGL
monomeric P301S 2N4R tau, pHrodo-labelled, sequence (P10636 other isoform, or with tags, fused parts or gaps P301S P301S): as the sequence (P10636 other isoform, or with tags, fused parts or gaps limits assumed) above, with P301S counted along it
aggregated (oligomeric) P301S 2N4R tau, pHrodo-labelled, sequence (P10636 other isoform, or with tags, fused parts or gaps P301S P301S): as the sequence (P10636 other isoform, or with tags, fused parts or gaps limits assumed) above, with P301S counted along it

B1: Clone 1 (#66) rabbit monoclonal IgG (antibody, V domains shown)
VH: QSVEESGGRLVTPGTPLTLTCTVSGIDLSSNAMIWVRQAPGKGLEYIGNIGTHGTTYYASWAKGRFTISKTSTTVDLKMTSPTTEDTATYFCSRGDIWGPGTLVTVSL
VL: AQVLTQTESPVSAPLRGTVTINCQASQSVDDNNNLAWYQQKPGQPPKLLIYEASTLASGVSSRFKGSGSGTQFTLTISDVQCDDAATYYCLGEFSCSSADCVVFGGGTEVVVKG
notes: rabbit IgG; also called clone #66; B9
As for B1, the 50% effective concentration (EC50) in assay [1] amounted to 0.82 nM.

B2: Clone #66 (Clone 1) chimeric human IgG1 (antibody, V domains shown)
VH: B1 VH
VL: B1 VL
notes: rabbit VH and VK on human IgG1; also called #66 hIgG1
As for B2, in assay [2], the Kd was 2.39 nM, the koff came out at 0.00478 s⁻¹ and the kon turned out to be 2.01e+06 M⁻¹ s⁻¹.

B3: #44 VH0VK0 chimeric human IgG1 (antibody, V domains shown)
VH: QSVEESGGRLVTPGTPLTLTCTVSGIDLSSYAMAWVRQAPGKGLEWIGCIDRRGGTFYASWVKGRFTISKTSTTVDLKMTSLTTEDTATYFCARDSGAFDPWGPGTLVTVSS
VL: QIVMTQTPSSVSAAVGGTVTIKCQASQSVYDNYLAWYQQKPGQPPKLLIHAASNLASRVPSRFKGSGSGTQFTLTISDVQCDDAATYYCLGEFSCTTTDCNVFGGGTEVVVK
notes: rabbit VH and VK on human IgG1; also called VH0Vκ0; Clone #44 hIgG1
For B3, in assay [2], the Kd was determined as 4.68 nM, the dissociation rate constant (koff) was 0.00968 s⁻¹ and the association rate constant (kon) was 2.07e+06 M⁻¹ s⁻¹. Further, in assay [3], the Kd was 3.25 nM, the “Relative KD (to VH0VK0)” value turned out to be 1, the koff turned out to be 0.0107 s⁻¹ and the on-rate (kon) is 3.3e+06 M⁻¹ s⁻¹. Further, in assay [4], the dissociation constant Kd was determined as 3.83 nM, the “Relative KD (to VH0VK0)” value is 1, the dissociation rate constant (koff) turned out to be 0.0126 s⁻¹ and the kon worked out at 3.28e+06 M⁻¹ s⁻¹.

B4: Clone 2 (#44) rabbit monoclonal IgG (antibody, V domains shown)
VH: B3 VH
VL: QIVMTQTPSSVSAAVGGTVTIKCQASQSVYDNYLAWYQQKPGQPPKLLIHAASNLASRVPSRFKGSGSGTQFTLTISDVQCDDAATYYCLGEFSCTTTDCNVFGGGTEVVVKG
notes: rabbit IgG; also called clone #44; D6
On to B4, for which the EC50 in [1] was found to be 1.05 nM.

B5: #44_VH4VK4_H02/pVL (antibody, V domains shown)
VH: QVQLQESGPGLVKPSETLSLTCTVSGIDLSSYAMAWVRQAPGKGLEWIGCIDRRGGTFYASWVKGRFTISKDTSKTTVDLQMTSLTAEDTATYFCARDRGDFDVWGQGTLVTVSS
VL: DIQMTQSPSSLSASVGDRVTITCQASQSVYDNYLAWYQQKPGQPPKLLIHAASNLASGVPSRFSGSGSGTEFTLTISSLQPDDFATYYCLGEFSCTTTDCNVFGGGTKVEIK
notes: also called Clone VH4_H02; #44_VH4_H02
As for B5, in assay [5], the “inhibition of monomeric tau uptake into human astrocytes” value was determined as 64.7% and the “inhibition of monomeric tau uptake into human iPSC-derived neurons” value was 84.1%. In [6], the “inhibition of aggregated tau uptake into human astrocytes” value stood at 43.3% and the “inhibition of aggregated tau uptake into human iPSC-derived neurons” value was determined as 59.2%. Also, in assay [7], the “Fold change (KD, to pVH/pVL)” value amounted to 5.62; the dissociation constant Kd turned out to be 1.17 nM; the dissociation rate constant (koff) was 0.00324 s⁻¹; the kon was found to be 2.78e+06 M⁻¹ s⁻¹. The binding result in the assay with Bovine serum albumin [8] is “no binding (tested: 30 ng/ml (legend 1:100))”. In [9], the “Fold improvement (KD, to pVH/pVL)” value stood at 5.1; the Kd was 1.52 nM; the koff worked out at 0.0037 s⁻¹; the kon turned out to be 2.43e+06 M⁻¹ s⁻¹.

B6: #44 VH6VK1 humanised hIgG1 (antibody, V domains shown)
VH: QVQLQESGPGLVKPSETLSLTCTVSGIDLSSYAMSWVRQAPGKGLEWVSCIDRRGGTFYASWVKGRFTISRDNSKNTLDLQMTSLTAEDTATYYCARDSGAFDPWGQGTLVTVSS
VL: B5 VL with D1Q, Q3V, G58R, S64K, P81C, K108E, E110V
notes: also called VH6Vκ1
Regarding B6, the binding result (with Bovine serum albumin [10]; in [11]) was “no binding (tested: supernatant 1:100)” in each case.

B7: #44_VH4VK4_H06/pVL (antibody, V domains shown)
VH: B5 VH with C50V, R53A, R54A, G56H, R99S, D101T, V104P
VL: B5 VL
notes: also called Clone VH4_H06; #44_VH4_H06
With B7, in assay [5], the “inhibition of monomeric tau uptake into human astrocytes” value was 35.1% and the “inhibition of monomeric tau uptake into human iPSC-derived neurons” value was 71%. In assay [6], the “inhibition of aggregated tau uptake into human astrocytes” value stood at 39.1% and the “inhibition of aggregated tau uptake into human iPSC-derived neurons” value is 55%. Also, in assay [7], the “Fold change (KD, to pVH/pVL)” value is 5.77; the dissociation constant Kd is 1.14 nM; the koff was determined as 0.00444 s⁻¹; the association rate constant (kon) is 3.9e+06 M⁻¹ s⁻¹. In the assay with Bovine serum albumin [8], the binding result is “no binding (tested: 30 ng/ml (legend 1:100))”. Moreover, in [9], the “Fold improvement (KD, to pVH/pVL)” value was 5; the koff was found to be 0.00524 s⁻¹; the kon amounted to 3.43e+06 M⁻¹ s⁻¹. Also, the Kd in assay [12] was 1.53 nM.

B8: #44_VH4VK4_H04/pVL (antibody, V domains shown)
VH: B5 VH with R99A, D101S, D103H, V104P
VL: B5 VL
notes: also called VH04/pVL; Clone VH4_H04
Consider B8, for which, in assay [5], the “inhibition of monomeric tau uptake into human astrocytes” value is 35.6% and the “inhibition of monomeric tau uptake into human iPSC-derived neurons” value worked out at 81.8%. In addition, in assay [6], the “inhibition of aggregated tau uptake into human astrocytes” value worked out at 32.6% and the “inhibition of aggregated tau uptake into human iPSC-derived neurons” value amounted to 65.5%. Moreover, in [7], the “Fold change (KD, to pVH/pVL)” value was found to be 11.1; the Kd came to 0.593 nM; the off-rate constant (koff) came to 0.0017 s⁻¹; the kon was determined as 2.86e+06 M⁻¹ s⁻¹. The binding result with Bovine serum albumin [8] is recorded as “no binding (tested: 30 ng/ml (legend 1:100))”. In [9], the “Fold improvement (KD, to pVH/pVL)” value is 10.5; the koff worked out at 0.00185 s⁻¹; the association rate constant (kon) is 2.51e+06 M⁻¹ s⁻¹. Moreover, the Kd in assay [12] was 0.736 nM.
